± gives the uncertainty stated by the source.
Experiment: protein stability index of a GFP-peptide fusion (yeast GPS) (PSI 1-4); higher = more stable; sorted into four equal gates, so the index is relative within each strain
Conditions: doa10∆
Method in brief: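 Peptides tiling yeast proteins in 17-residue segments were fused downstream of GFP, with Cherry expressed from the same plasmid. As a pooled library in yeast, mid-log cultures grown in leucine-free medium were sorted into four equal gates by GFP/Cherry fluorescence ratio. Gate plasmids were PCR-amplified and Illumina-sequenced, and barcodes linked reads to strains. Each peptide received a protein stability index equal to the sum of each gate's read frequency times its gate number.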

Row | Sequence | protein stability index
1 | SVPLRKGDRALLVKLSK [BRR2] | 2.46 ± 0.17
2 | SVQLPDMAKLKKMMNTS [SWI3] | 2.14 ± 0.082
3 | SVSMLLQYYILEYMNTA [RRI2] | 2.22 ± 0.079
4 | SVVHPGEMVGVLAAQSI [RPO21] | 1.29 ± 0.13
5 | SVVLTLQAFGESESTTN [RPB3] | 2.42 ± 0.12
6 | SVWKPIAAIIGRLNTLV [IRR1] | 1.68 ± 0.03
7 | SVYYHKGNFRTKPFENV [SNU114] | 3.35 ± 0.065
8 | SWASEGISKKTRIAGVV [RPS8A] | 2.54 ± 0.039
9 | SYALSMEKDKLKNLLRS [SNU114] | 2.97 ± 0.25
10 | SYANLPGTITHGMFSSA [FAS1] | 2.64 ± 0.06
11 | SYDRTLLIADSRRPEPK [RPS16A] | 2.25 ± 0.043
12 | SYELRNTTTYKSRPDRP [SNF5] | 3.14 ± 0.06
13 | SYFKNSVIVKFHSEPDR [LIN1] | 2.23 ± 0.062
14 | SYRLLPQINILQPIKGE [RPC40] | 2.04 ± 0.094
15 | SYTFRSEKGLLSATQFT [FAS1] | 2.67 ± 0.052
16 | SYYSREQDALFITRLAQ [RPN1] | 1.71 ± 0.044
17 | TAETGYIQRRLVKALED [RPO21] | 2.31 ± 0.073
18 | TAFATEFFVQVLTHESL [DLS1] | 2.47 ± 0.11
19 | TALALKYLIKYNVFRQH [CSI1] | 1.63 ± 0.06
20 | TANANKPAFSFGATTND [YJL041W/NSP1] | 3.01 ± 0.07
21 | TARRNVSGDAAALFRLH [SWI3] | 2.43 ± 0.093
22 | TCPGLSLTDVAFFTYDA [ECM29] | 3.36 ± 0.14
23 | TDEHLIFNSGKMIILDK [ISW2] | 3 ± 0.24
24 | TDGADENVQIGEDFMEV [SRB4] | 2.66 ± 0.12
25 | TDKVSLSQPVSASKHEY [SIR4] | 2.29 ± 0.079
26 | TDLKKIIKANQLILSDV [RET1] | 2.57 ± 0.055

Row | Sequence | protein stability index
27 | TEDRYNEYVAKVSAREK [FAS2] | 3.2 ± 0.086
28 | TEENKANTNSVTSMEAA [YIL149C/MLP2] | 3.46 ± 0.1
29 | TEKKFTKEQYAAESKKY [RPL5] | 3.2 ± 0.16
30 | TETALMNLKKELQGYIE [SRB5] | 3.05 ± 0.097
31 | TEYCVGDYVAYQLNGVA [YMR129W/POM152] | 2.83 ± 0.14
32 | TEYGRKYNVNISALTQT [PRP8] | 2.07 ± 0.14
33 | TFAQEKLNTFENDLLQE [SMC3] | 3.33 ± 0.18
34 | TFAVILFLIIQCYKIYD [YMR129W/POM152] | 1.35 ± 0.057
35 | TFEIPQAHEIVIPSYSK [SWI3] | 2.43 ± 0.095
36 | TFENTNNTEKNDVTNKN [SIR4] | 2.78 ± 0.094
37 | TFFPRCIIAVSCTLLER [POP1] | 1.31 ± 0.024
38 | TFGIRRNEKIAVHVTVR [RPL11A] | 2.17 ± 0.082
39 | TFHDYDMVKLDINPPLV [RRP42] | 2.94 ± 0.088
40 | TFQRVCQYMVACVPLLP [RPN1] | 2.5 ± 0.06
41 | TFSVYHESTSRTDQYTI [YMR129W/POM152] | 2.63 ± 0.15
42 | TGANSIYSVEKKISRLP [UBP6] | 3 ± 0.08
43 | TGITKKDEDEEADEDMK [PRE9] | 3.09 ± 0.057
44 | TGTGLQDENIGLSMLAK [RPC31] | 3.12 ± 0.14
45 | TGVMIGIDLAYNMYDAY [PRP8] | 2.5 ± 0.064
46 | THSKLFADKKRDCIDIS [PRP8] | 3.45 ± 0.095
47 | TIEHAADITDGNNTELT [YCG1] | 3.29 ± 0.081
48 | TIEVLDEVITEGQADID [POP7] | 2.94 ± 0.064
49 | TIFGGVDKNGAHLYMLE [PRE10] | 2.88 ± 0.076
50 | TIFNLPKNKLVPTLEAK [FAS1] | 2.27 ± 0.059
51 | TIFSPEGRLYQVEYALE [PRE9] | 3.13 ± 0.079
52 | TIGGGLFGNKPTTTTGG [YGR119C/NUP57] | 3 ± 0.094

Row | Sequence | protein stability index
53 | TIGPYRARKDRMRVSVL [SSN3] | 3.19 ± 0.15
54 | TIITDCAFLLTKIKDAE [YJL039C/NUP192] | 2.52 ± 0.071
55 | TIKVAGTPLLEVRGQVP [SNU114] | 2.67 ± 0.08
56 | TIKVVKRSMDAEQLGHA [RPP1] | 3.18 ± 0.067
57 | TILQHLSEAWRCWKANI [PRP8] | 3.33 ± 0.081
58 | TILYLNVFHGLCAGANN [IRR1] | 1.3 ± 0.071
59 | TIPLGGSVHKLPYAIAG [PRE3] | 2.97 ± 0.066
60 | TIRVVTENKIFVEVERA [RPN5] | 1.51 ± 0.18
61 | TIRYPDPNIKVNDTVKI [RPS4A] | 2.48 ± 0.09
62 | TKDKAKKIREIYRYDEM [BRR2] | 2.58 ± 0.14
63 | TKEVESNIITKSLVQYI [DIS3] | 2.71 ± 0.14
64 | TKGMITNLQRNVDRLYK [NUT2] | 3.47 ± 0.29
65 | TKIAQSQTMAETYVASY [ECM29] | 1.92 ± 0.037
66 | TKKTITPMGGFVHYGEI [RPL3] | 3.2 ± 0.074
67 | TKLIQYEHNGRTLEAIT [CSL4] | 2.22 ± 0.049
68 | TKNIPITHRDLHYDKDY [SSN8] | 2.65 ± 0.043
69 | TKPNVLNDPSLKIQFIL [SIN4] | 2.03 ± 0.043
70 | TKRESLNARMFLKYYGA [SIR2] | 2.98 ± 0.11
71 | TKSNRRVSHSDTNSSKP [SIR4] | 2.97 ± 0.077
72 | TKTNVDNNSKAEASFTF [YLR335W/NUP2] | 3.05 ± 0.063
73 | TKTPGPGGQAALRALAR [RPS14A] | 2.64 ± 0.042
74 | TKTRKHRGHVSAGKGRI [RPL28] | 1.91 ± 0.06
75 | TKTTGKCGSVTVRLIPA [RPS2] | 1.34 ± 0.11
76 | TKVLQFAAKQRQELQMQ [SNF2] | 2.3 ± 0.12
77 | TKYSAKYAQDGAGIERE [RPL3] | 3.04 ± 0.15
78 | TLAERQQLAYDLSISAL [RPN9] | 2.39 ± 0.078

Row | Sequence | protein stability index
79 | TLAITTVTNSKFRSSIL [RPN2] | 2.19 ± 0.046
80 | TLAYDRGHRIRREFKQY [PRP8] | 2.82 ± 0.08
81 | TLDYAERHGYIRGIVKQ [RPL2A] | 1.71 ± 0.06
82 | TLEAKIGGLLSKVREEV [RPO31] | 3 ± 0.11
83 | TLFSSIEPQVINYLALN [ECM29] | 2.31 ± 0.07
84 | TLGKLSTSVGWKYEDVV [RPL16B] | 2.82 ± 0.062
85 | TLHLVLRLRGGIIEPSL [RPL40A] | 2.99 ± 0.056
86 | TLKKEWLKEYEDETLRR [YIL149C/MLP2] | 3.12 ± 0.21
87 | TLKLQDTRITPSKVSKI [PRE6] | 2.53 ± 0.05
88 | TLKPTFSFTEPAQKDSS [YOR098C/NUP1] | 2.78 ± 0.059
89 | TLLREVVFTRLVQRCWQ [CSN12] | 1.4 ± 0.061
90 | TLLYEQIIQRDKINKYS [SNF5] | 3.1 ± 0.08
91 | TLNPKTGHLFLKIIHTS [PRP8] | 2.44 ± 0.047
92 | TLNSRALSGLYYKNFHN [SNM1] | 2.17 ± 0.052
93 | TLPGDDELDQEILNLST [RPT5] | 3.32 ± 0.12
94 | TLPQPRLNKLNSNGIAM [SMD1] | 2.3 ± 0.11
95 | TLQLYMVHREFLKLANG [RGR1] | 1.49 ± 0.047
96 | TLQTISFLGYLRYVKQI [ISW2] | 2.24 ± 0.044
97 | TLRPRQYATVSKTHKTV [RPL34A] | 2 ± 0.16
98 | TLSYDDISAAIVHSSDG [DLS1] | 2.65 ± 0.046
99 | TMETKTLPEKKQFDSIF [SIR4] | 2.44 ± 0.047
100 | TMGEETAKKDMSSTTPK [SNF12] | 2.58 ± 0.07
101 | TMHTKTYAAEIAHNISA [RPL32] | 2.34 ± 0.042
102 | TMLENITLRGVENIERV [RPO21] | 3.23 ± 0.12
103 | TMVIQDEDWSVRIDKAL [ECM29] | 2.84 ± 0.19
104 | TNEEVRNMAEEFEYDDE [CYT1] | 2.92 ± 0.14
